Results from paper PMC9637899, “Outer surface lipoproteins from the Lyme disease spirochete exploit the molecular switch mechanism of the complement protease C1s” (The Journal of Biological Chemistry, 2022).

Target: T1, activated C1s–CCP1–CCP2–SP (human, UniProt P09871 292-688)
T1 construct: human complement C1s, C-terminal domains CCP1, CCP2 and serine protease (SP); Cleaved by C1r into two chains (confirmed by reducing SDS-PAGE); Tag removal is inferred: only the c-Myc S632A form 'was not subjected to His-TEV cleavage'; also called wildtype C1s–CCP1–CCP2–SP
T1 sequence: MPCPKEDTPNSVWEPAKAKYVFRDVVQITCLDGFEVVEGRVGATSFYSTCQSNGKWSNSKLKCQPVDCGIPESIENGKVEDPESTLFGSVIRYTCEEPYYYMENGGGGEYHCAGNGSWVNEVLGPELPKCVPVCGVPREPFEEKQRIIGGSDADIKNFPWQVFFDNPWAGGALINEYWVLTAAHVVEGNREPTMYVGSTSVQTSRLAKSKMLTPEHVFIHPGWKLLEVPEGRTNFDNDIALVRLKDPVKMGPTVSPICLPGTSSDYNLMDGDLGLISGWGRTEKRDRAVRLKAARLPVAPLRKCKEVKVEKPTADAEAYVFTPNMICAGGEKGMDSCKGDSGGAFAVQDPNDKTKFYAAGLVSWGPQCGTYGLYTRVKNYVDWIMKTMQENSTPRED
Experiment: SPR; Elp truncation amine-coupled to a CMD200 chip; multicycle twofold injection series of C1s enzyme or activated C1s–CCP1–CCP2–SP constructs from 200 nM; HBS-T Ca2+ (10 mM Hepes pH 7.3, 140 mM NaCl, 0.005% Tween-20, 5 mM CaCl2), 30 ul/min; K_(D, kin) from a kinetic and K_(D, ss) from a steady-state 1:1 (Langmuir) fit; triplicate
Details: both partners purified

B1: ElpB_(182–378) (domain or fragment)
chain: QERKAKAEKEAKEKAERQKQEEQQKRKAEKEREEQRKEAEKRQVDNEIRTLTGKIDEINRNIDVIKEQTSVGAQGVIDRITGPVYDDFTDGNKAIYKTWGDLEDDNDEGLGKLLKELSDTRHNLRTKLNEGNKAYIIDTRSTEPQLKENVSVSEIKSDLDELKSKLEEVKEYLEDKDNFEEIKEYVAGSEDNYDEED
notes: ElpB (ErpB) of B. burgdorferi, residues 182-378; also called C-terminal domain of ElpB; not shown: His6 (from the vector pT7HMT), N-terminal, cleaved; c-Myc (from the vector pT7HMT), N-terminal, cleaved
Q: How did the Kd turn out when B1 was run?
A: The Kd was 360 ± 17 nM.
